From patent US20210002623A1 (CENTRE NATIONAL DE LA RECHERCHE SCIENTIFIQUE, published 2021)

Biological target: the molecule itself
Test: self-assembly into a homododecamer; gel filtration and negative stain electron microscopy

B1: MjTET (TET aminopeptidase of Methanocaldococcus jannaschii, product of gene MJ0555) (enzyme)
chain: MSVVEYLKKLSKLHGISGREDSVREFMKKELEKYCDSVEIDNFGNLIAKRGNKGKKIMIAAHMDEIGLMVKYIDDNGFLKFTKIGGIYDPTILNQKVVVHGSKGDLIGVLGSKPPHRMKEEEKTKIIKYEDMFIDIGAESREEAIEMGVNIGTWVSFLSEVYDLGKNRLTGKAFDDRVGCAVLLEVMKRLSEEDIDCQVYAVGTVQEEVGLKGARVSAFKINPDVAIALDVTIAGDHPGIKKEDAPVDLGKGPVVGIVDASGRGLIAHPKVLDMIKAVSEKYKIDVQWEVGEGGTTDATAIHLTREGIPTGVISVPARYIHTPVEVIDKRDLEKTVELVYNCIKEVNNFF
notes: Untagged recombinant form made in E. coli; It forms a tetrahedral homododecamer; Activity assays were run with 0.1 mM CoCl2; also called MJ0555 protein; TET protein
B1: binds.
